Experimental data reported in the DeepSol protein solubility set.

Experiment: soluble on expression in E. coli; label from the status in PepcDB or PDB records

Sequence	soluble on expression in E. coli
MPSYTLTQLASAVRNCLESGFPGRYWVSAETSGVRVGISGHCYLELLDKDTSGSQVTARMKAMIWASDYATLSGRFQRETGETFDSGLHVLVLVSVSYHEQYGLSLRILDIDPSYTMGAMARKRKEIIEELRRQGLYDLNRSLSLPRPTQRIAIVSSGAAAGFEDFIAHLSHSAEHFCFYPVLFQAVMQGAQTEASVLGALERIAYHRDSFDVVVIIRGGGAVSELAAFDSLAIGQACARFPLPILTGIGHDRDETVVDLVAYRSLKTPTAVADFLVNCQREEWKLIDDLRSRAAEGLRMMMMYCHERLIQLSLRTPAILKSSVREEHHRIKSVEDRIRLAAKQRIAFGLQQLQIASRSLPALMKSELKQNTGQLDQVAARLPLLVTANLKNYNRRLETNEQAIRLLHPNATLRRGFAIVLKDDKAIRSHSELHKGDHLVAQFADGSVSAVVDQPQKGKH	not soluble
MPTDIFSFKQFDIDQTGCAMRVGTDGVLLGAWAGEDAAGSIPQHCLDIGTGTGLIALMLAQRFPQARVQGIEIDPIAAECARANAAASPFSDRIVIASGDILDSSLESLIGNQRFDLIVSNPPFFKSSMHAPDRQRTMARHEETLPLEKLICRASELLSPQGRLALITPRDRLKDLRLYAATYRLVSSRLTEVRTLPHKEPKRLLSEWRPADTAIDRSPFTDTLIIHPATGYYSPEYVRLTEPFYTTSFRILAVG	soluble
MPTFLECPHCQRLYSKHSLLIHEKNCIESMHKILEQEKLKMQNNQKRGRSKSGRRKKIRPAEMTTTERPRTRSLSRYNHENNGLRICFVCGEQYDDQVIEEHKEKCYGDWSILSKSLSVRFHIHQPKTLNTPSIDGTIDVARENMRAVQSSHNCQIVRCRFCNARISLQHAQSHQCVRFEPTIEFYC	soluble
MPTNCAAAGCATTYNKHINISFHRFPLDPKRRKEWVRLVRRKNFVPGKHTFLCSKHFEASCFDLTGQTRRLKMDAVPTIFDFCTHIKSMKLKSRNLLKKNNSCSPAGPSNLKSNISSQQVLLEHSYAFRNPMEAKKRIIKLEKEIASLRRKMKTCLQKERRATRRWIKATCLVKNLEANSVLPKGTSEHMLPTALSSLPLEDFKILEQDQQDKTLLSLNLKQTKSTFI	not soluble
MPTPTTLSEWQLLAVLSKANLVQYYDVFIAQGGDDINQIMACEEREFLEIMNLVGMLPKPLHVRRMQRALAEYSQDQTAFNLAALQQIGPPPPLNYTPAGTDPMALLLPGIAAATSPKFPSLRFLSQLSSVAEKVSTPSEAADTSSSSPSLNLNTTSSNSVPLAFKFSTPLLESLASDQQSSSTSSVRSVLPSTSSNTSHPELPAGILPATTTNVSAAVPPPSSRATANVFSGNSIGLNFSGAASVTRHLVVPPSSTSIQQPSTSFGRSSSITGQEKEGSSSPFLGVGYSQPYGNDFVSLGDFDPNNPSLTENPTLSTAQISRLAECALAASKNLPPLPPRLVQNKKRVSKEVIELLKCSPATPSMIHAFRKYSAIYGRFDTKRKPHKVLTLHETTVNEAAAQLCLLVPSLLTRRDELFPLARQIVKDAGYNYAKSRKRPCDPADLHSPISSPGNSPPPQESEFDEQPSSSSGAFKEEERPPIPPEAWAAIIEKMKGELPES	not soluble
MPVKIPDHLPAAGILESENIFVMSETRAANQDIRPMKVLILNLMPNKIETETQLLRLLGNTPLQVDVDLLRIHDKESKHTSIDHMNTFYRDFEDVRHKNYDGLIITGAPLGQIDFEDVTYWDHIREIIDWSQQHVTSVLFLCWAAHAGLYHLYGLNRKILEQKRSGVFVHRRTCQHFPLLRGFDDEFFAPHSRFAEMDVEEIRQHPQLQLLAESDEAGAYLVLSRNNRNLFVMGHPEYQKSTLNDEYHRDLAQSLNPNVPQNYYRNDDPKADAIARWHSHGSLLVSNWLNYYVYQLTPYDLSDMTAMTPWESQMAGDPLEHHHHHH	soluble
MPVLALRLTALAALVISVSGCVMEAYGSRARSDAQSWIGLPIQDVIKRFGEPERVTGDAARQKYVWKEYENYSHDYDYTYYEQGHGNTPNSSVLNQKTGTANQSGYYTCIYEFFADASGRVVDATARGECR	not soluble
MPVLHNRISNDELKAKMLAESEPRTTISFYKYFTIASPQQTRDALYQVFTALDVFGRVYLAHEGINAQISVPQSKLETFRQQLYTFDPALDGVRLNIALEDDGKSFWVLRMKVRDRIVADGIDDPTFDASNVGDYLKAADVNAMLDDPDAVFIDMRNHYEYEVGHFENALEIPADTFREQLPKAVEMLREHADKKIVMYCTGGIRCEKASAWMKHNGFNKVWHIEGGIIEYARRARAQGLPVRFIGKNFVFDERMGERISDEVIAHCHQCGASCDSHTNCKNDGCHLLFIQCPQCASKFNGCCSEQCCEELALPEEEQRRRRAGRENGNKIFNKSRGRLNSKLSIPDPAEAAALEHHHHHH	soluble
MPVTNMAELDAMIARVKKAQEEFATYSQEQVDKIFRAASLAANQARIPLAQQAVEESGMGIVEDKVIKNHFASEFIYNKYKDEQTCGILEEDDNLGTMTIAEPVGIICGIVPTTNPTSTAIFKSLISLKTRNGIIFSPHPRAKNSTNDAAKLVLDAAVAAGAPKDIIGWIDQPSVELSNALMKHDDIALILATGGPGMVKAAYSSGKPAIGVGAGNVPVVIDETADIKRAVASVLMSKTFDNGVVCASEQAVIVVDEVYDEVKERFASHKAHVLSKTDADKVRKVLLIDGALNAKIVGQPATAIAEMAGVKVPADTKVLIGEGLGKVSYDDAFAHEKLSPTLGMFRADNFEDAVAQAVTMVEIGGIGHTSGLYTNQDVNADRIRYFGDKMKTARILINIPTTHGGIGDLYNFNVAPSLTLGCGSWGGNSISENVGPKHLINKKTVAKRAENM	soluble
MPVTQEEIIAGIAEIIEEVTGIEPSEITPEKSFVDDLDIDSLSMVEIAVQTEDKYGVKIPDEDLAGLRTVGDVVAYIQKLEEENPEAAQALRAKIESENPDAVANVQARLEAESK	soluble
MQAKEEKEFTLQERRCLIVWVYTLKPLKQLRRYGLIHYVSRKMKYVVIYMNEENIESNMEKINQLHFVRSVDKSYRPDVEMNFAEKIGTKAAYQEQEDDGYVVEELSTEIRLAENV	not soluble
MQAKIKNKRVLVKFSGEALAGDNQFGIDIHVLDHIAKEIKSLVENDIEVGIVIGGGNIIRGVSAAQGGIIRRTSGDYMGMLATVINAVAMQEALEHIGLDTRVQSAIEIKEICESYIYRKAIRHLEKGRVVIFGAGTGNPFFTTDTAATLRAIEIGSDLIIKATKVDGIYDKDPNKFKDAKKLDTLSYNDALIGDIEVMDDTAISLAKDNKLPIVVCNMFKKGNLLQVIKHQQGVFSMVKLEHHHHHH	not soluble
MQASQFSAQVLDWYDKYGRKTLPWQIDKTPYKVWLSEVMLQQTQVATVIPYFERFMARFPTVTDLANAPLDEVLHLWTGLGYYARARNLHKAAQQVATLHGGKFPETFEEVAALPGVGRSTAGAILSLSLGKHFPILDGNVARVLARCYAVSGWPGKKEVENKLWSLSEQVTPAVGVERFNQAMMDLGAMICTRSKPKCSLCPLQNGCIAAANNSWALYPGKKPK	soluble
MQAYRGTGKTSQLISQKKPISILILGVDQGIEGRHDRGNSDTMILATMNPEKKEATMTSIPRDLLADIKGDGRGEGKYYMFRANSAYQVGGSKGATRTVKALLNTPVNYYMEVNMKALESMVEALGGVDVNVPFTFTYHTHFRKGKQHLNGKEALDYVRMRKEDPKGDYGRQMRQRQVINDIVRKGMSVNSITNYRKILKVFAKYVKTNLTFDDMLSIAMNYRGCTQNIKSGYIQGHNVWIGAAAMQVASTKELQRVSDLVRSSLGLKQEKLEHHHHHH	soluble
MQAYTYTIIQRLDNLNQQRIDRALALMDSQSQQVFHLIPALLNYNHPVIPGYYDADVPFGVHGLELNPIQQQFIDDIQLAIGQPLKTAEKPAILGLYTMGSTSSIGQSTSSDLDIWVCISPEMDCDERELLTNKCLLITDWAQSQGVEANFFLMDEERFRSNHSEEMTGDNCGSSQHLLLLDEFYRSAVRIAGQRLLWQIVPPEMEECYDEYVSQLCSDGYIDCSEWIDFGKLNRIPAEEYFGSNLWQLYKSIDSPYKSVLKAILLEAYSWEYPHTQLLSIDTKRRFFAHEPDLYGMDAYYLMLEKVTRYLERIQDDTRLDLVRRCFYLKTHEKLSREPDVGSVAWRREALSDMIAKWNWDDSVVAELDDRRNWKVEQVKVVHHALLDALMQSYRNLIQFARRNDITSAISPQDISILARKLYAAFEVLPGKVTLLNPQISPDLHEADLSFIEVKEGGVNKSGWYLYKQPLIAHRILGQPCLEHHEYLSKLVSWAFFNGLITESTRLHAVVREAQLDIDKFYQMVSDLRNTFALRKRRPTMQALASPCEISQLAMFINFENDPTSELSGRSLKVDVKNTDIFSFGPEHKNLVGSVDLVYRNSWHEVRTLHFKGETAMLDALKTILGKMHQDALPPESVDVFCYAKNMRGVMRNMVYQLLAECIDLRLKPVEQEKRRRFKAMRLGNQTYGLFFERRGVSVQKLENSIDFYRSISTNKLKGSPLLMLDREQEYQLPEAVDGFASEGLVQFFFEDNEDGFNIYVLDESNQVEVYHQFSGSKDEMIASVNSFYTSVKDDSRVASKFINFNLPQYYQIIHPEEGNAYIIPYRNDGCSP	not soluble
MQCCVQLVPFWDTSGVSTMFDYQVSKHPHFDEACRAFALRHNLVQLAERAGMNVQILRNKLNPAQPHLLTAPEIWLLTDLTEDSTLVDGFLAQIHCLPCVPINEVAKEKLPHYVMSATAEIGRVAAGAVSGDVKTSAGRRDAISSINSVTRLMALAAVSLQARLQANPAMASAVDTVTGLGASFGLL	not soluble
MQDIHFRRHYVRHLPKEVSQNDIIKALASPLINDGMVVSDFADHVITREQNFPTGLPVEPVGVAIPHTDHKYVRQNAISVGILAEPVNFEDMGGEPDPVPVRVVFMLALGESNKQLNVLGWIMDVIQDEDFMQQLLVMNDDEIYQSIYTRISERGEV	soluble
MQDSKIPPFSEAKRMKIPTPKQPLTQLPPRIGKKVSNRSKSNQVHAISHQLEMSPNSDSSPGNEYRALRRKYLLLEEDSFALERELKEAEDEVKALEDEKLELLDKLVVMEGLVDP	soluble
MQEIGILENLQKSLALKEGMLSYEMLGKSLSYNPYLPRVIPQTKDCVFVTPDEVLEKLLKENTHTDCVIVNFKGLYEIGAPSVFNLEVLGLLRRHASSLIVHQDLFISHYQLLESLVQGSDGVVLDEELLKEDLKGMVEFSWRLGLSVFVETHKQDYTHLKDLGVLGVLEKVPHSQNQKRIVFLD	not soluble
MQEIIFIDEGSFPTPEGVTREWVQGAAENRDEDEKLFSIIREAFQIKIDAGVQVPTYPQFRDMIGQFFDIIKDEKNCHEPYVLKEERATILELEAIDEVAKQYKIETGKTLEVRVCIAGPTDMYYQAFGATAFVDVYDILAKDIEKFIKQAFKTAKNFKIKVIALDEIGLGLNDKIQFSDDEIISALTVASTFARQQGADVEIHVYSPLKYELICETPINVIGFEYAGNPSYIDLLDRKVLEDSDAYAGVGISRTDIFSLISIVNEKYGINAWKDKEYMQKIVTELETPDIIKKRLETAYSVLGDRIKYANPDCGLAFWPDQELAFRLLENTAKAVNEFNAEGIINKAAALEHHHHHH	not soluble
MQEIIFIDGGSLPTPEGFTREWVKAAAESRTEDQKLFSLVSDAFQRKIDAGVHVPTYPQFRDMIGQFLDIIRDEKNCYEPYVLKEENAKILELEIIDEVAKQYRERTGKTLEVRVCVAGPTDLYLQAFGATAFSDAYHIMALNIENFIKQAFKAAKNFKIKVIALDEPSLGMNDKIQFSDLDIVSALTLASTYARKQGADVEIHLHSPLKYKLICETPINVMGFEYAATPSYIDLMDKKILEDSNTYIRLGVSRTDISSLIGMVNETYGVNAWKEKEYMQKIVTELETPDIIQKRLEKACSILGDRIKYASPDCGLAFWPDQELAFRLLENTAKGINAFNAEMKDLLEHHHHHH	not soluble
